In publication PMC7596504, “Molecular mechanism of the MORC4 ATPase activation” (Nature Communications, 2020):

Columns and labels:
[1] = test system: NCP147; assay: EMSA with NCP147; format: binding; details: 5 nM 147 bp fluorescein-labeled NCP, pH 7.5, 4 °C
Experimental: EMSAs were performed by mixing increasing amounts of MORC4 ATPase with 5 nM 147 bp fluorescein-labeled NCP in 25 mM Tris-HCl pH 7.5, 75 mM NaCl, 25 mM Tris-HCl pH 7.5, 0.005% Tween 20, and 10% glycerol buffer in a 12 μL reaction volume. Each sample was incubated at 4 °C for 5 min and then loaded onto a 5% native polyacrylamide gel. Electrophoresis was performed in 0.3× Tris-borate-EDTA (TBE) at 300 V for 90 min. Fluorescein fluorescence images were acquired with a Typhoon Phosphor Imager.

[2] = test system: NCP207; assay: Fluorescence polarization binding to NCP207
Experimental: Fluorescence polarization measurements were acquired with a Tecan infinite M1000Pro plate reader by exciting at 470 nm and measuring polarized emission at 519 nm with 5 nm excitation and emission bandwidths. The fluorescence polarization was calculated from the emission polarized parallel and perpendicular to the polarized excitation light. Fluorescence polarization measurements were carried out using increasing concentrations of MORC4 ATPaseCW, ATPase alone, or CW alone with 5 nM 207 bp Fluorescein-labeled NCPs in 15 mM Tris pH 7.5, 75 mM NaCl, 0.00625% Tween 20, and 5 mM dithiothreitol buffer in 30 µL reaction volumes. The samples were loaded into a Corning round bottom black polystyrene plate and incubated at room temperature for 10 min before fluorescence polarization measurements of the samples were taken. The data were then fit to a non-cooperative binding isotherm to determine S1/2 values. Errors represent a S.D. between the S1/2 values based on three runs.
Histone octamers unlabeled or labeled with Cy5 at H2AK119 were prepared as previously described. NCPs were reconstituted by combining octamer with 1.25× excess DNA and performing slow salt dialysis. Free DNA was then separated from fully reconstituted NCPs by sucrose gradient purification. NCPs for fluorescence polarization assays were reconstituted from unlabeled octamer and 207 bp DNA containing the 601 Widom sequence flanked with a 30 bp linker on either side and internally labeled with Fluorescein 27 bp in from the 5′ end. Cy3-Cy5 labeled NCPs for FRET assays were reconstituted with Cy5 labeled octamer plus either 147 bp 601 Widom DNA containing a LexA transcription factor binding site at bases 8–27[34], or 252 bp DNA containing the 601 Widom sequence with a 75 bp linker at the 3′ end, a 30 bp linker at the 5’ end, and a Gal4 transcription factor binding site at bases 8–26 in the 601 Widom sequence. The 147 bp LexA-binding DNA was labeled with Cy3 on the 5′ end, and the 252 bp Gal4-binding DNA was internally labeled with Cy3 34 bp in from the 5′ end.

[3] = test system: NCP147; assay: Fluorescence polarization binding to NCP147
[4] = test system: O’RangeRuler 5 bp ladder; assay: EMSA with DNA ladder (minimum DNA length); format: binding; details: 5 bp ladder 50 ng, pH 7.5, 150 mM NaCl
Experimental: EMSA experiments were performed essentially as described. In brief, increasing amounts of WT or mutant CW or ATPaseCW cassette of MORC4 were incubated with 147 bp 601 DNA (5 pmol) or 50 ng of O’RangeRuler 5 bp ladder (Thermo Scientific) in a DNA-binding buffer containing 20 mM Tris-HCl (pH 7.5), 150 mM NaCl, 2.5 mM MgCl2, and 2 mM DTT for 0.5 h on ice. The reaction mixtures were loaded on 5% native polyacrylamide gels, and electrophoresis was performed in 0.2× Tris-borate-EDTA (TBE) buffer at 100 V for 1.2 h on ice. Gels were stained with SYBR Gold (Invitrogen).

B1: ATPaseCW: ATPaseCW cassette (aa 29–486) of human MORC4 (Q8TE76) (protein)
chain: GIRLSTMSPRYLQSNSSSHTRPFSAIAELLDNAVDPDVSARTVFIDVEEVKNKSCLTFTDDGCGMTPHKLHRMLSFGFTDKVIKKSQCPIGVFGNGFKSGSMRLGKDALVFTKNGGTLTVGLLSQTYLECVQAQAVIVPIVPFNQQNKKMIITEDSLPSLEAILNYSIFNRENDLLAQFDAIPGKKGTRVLIWNIRRNKNGKSELDFDTDQYDILVSDFDTEEKMTGGVTSELPETEYSLRAFCGILYMKPRMKIFLRQKKVTTQMIAKSLANVEYDTYKPTFTNKQVRITFGFSCKNSNQFGIMMYHNNRLIKSFEKVGCQVKPTRGEGVGVIGVIECNFLKPAYNKQDFEYTKEYRLTINALAQKLNAYWKEKTSQDNFETSTVARPIPKVPDQTWVQCDECLKWRKLPGKIDPSMLPARWFCYYNSHPKYRRCSVPEEQELTDEDLCLSKAKKQE
modifications: left off: GST, end not stated, cleaved
- binding to NCP147 in EMSA [1]: bound to NCP147
- tighter binding to NCP147 or NCP207 than the ATPase domain only ([2]; ATPaseCW vs ATPase domain, either NCP147 or NCP207): 2.5–6 fold
- increase in interaction with NCP207 relative to NCP147 ([2]; NCP207 vs NCP147): ~ 2 fold
- S1/2 ([2]; fluorescence polarization, 5 nM NCP207, pH 7.5, 75 mM NaCl, room temperature, 10 min, mean ± S.D. of n = 3): 0.20 ± 0.07 µM
- decrease in binding to NCP147 compared to NCP207 ([3]; NCP147 vs NCP207 (peer review file)): 2 fold
- S1/2 ([3]; fluorescence polarization, pH 7.5, 75 mM NaCl, room temperature, 10 min, mean of n = 3): 0.4 µM
- minimum DNA length for appreciable interaction [4]: ≥ 30 bp
